In patent USRE50268 one finds stoichiometry (Fab per trimer) data, which are given here for one molecule.

In this assay the target is BG505 SOSIP.664 gp140 trimer (HIV-1 isolate BG505). The assay is described as follows: single-particle negative-stain electron microscopy.

B1: PGDM1400 Fab (Fab, V domains shown)
VH: QVHLTQSGPEVRKPGTSVKVSCKAPGNTLKTYDLHWVRSVPGQGLQWMGWISHEGDKKVIVERFKAKVTIDWDRSTNTAYLQLSGLTSGDTAVYYCAKGSKHRLRDYALYDDDGALNWAVDVDYLSNLEFWGQGTAVTVSS
VL: DFVLTQSPHSLSVTPGESASISCKSSHSLIHGDRNNYLAWYVQKPGRSPQLLIYLASSRASGVPDRFSGSGSDKDFTLKISRVETEDVGTYYCMQGRESPWTFGQGTKVDIK
modifications: sulfated tyrosine at position 100F (Tys100F), seen in the electron density map of the Fab crystal structure
B1: the stoichiometry (Fab per trimer) was 1.
